In patent US20260184779A1 (XBIOTECH, published 2026):

Molecular target: T1, recombinant human interleukin 1 alpha (IL-1α) (human, UniProt P01583 113-271)
T1 sequence (looked up): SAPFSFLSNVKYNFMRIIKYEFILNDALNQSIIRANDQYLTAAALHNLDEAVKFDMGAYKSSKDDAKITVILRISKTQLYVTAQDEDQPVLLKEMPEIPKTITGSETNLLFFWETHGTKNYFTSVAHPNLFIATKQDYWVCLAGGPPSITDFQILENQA
Assay: cell-based or functional assay

- HUVEC-based potency assay: ICAM-1 expression on HUVEC cells by flow cytometry, IC50: 3.7 ng/mL
B1: human monoclonal antibody designated XIA13 (antibody, V domains shown)
VH: QVQLVQSGAEVKKPGSSVKVSCKASGGRFTNYAILWVRQAPGQGLQWLGGIIPIFDETDHAQDFQDRLTITVDESMTTAYMELSSLRPEDTAIYYCATGSNSYYGLYWGQGTLVTVSS
VL: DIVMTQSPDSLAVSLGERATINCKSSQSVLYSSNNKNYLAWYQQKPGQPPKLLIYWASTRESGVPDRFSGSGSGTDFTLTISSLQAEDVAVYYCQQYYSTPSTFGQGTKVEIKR
